The assay relates to RD29B-LUC expression. Nature of the assay: ABA-independent induction of RD29B-LUC in triple mutant protoplasts. The format is cell-based, Arabidopsis. The settings on record: abi1/hab1/abi2 protoplasts. From the text:
The basal RD29B-LUC expression level was elevated in protoplasts co-transfected with PP2CA-PYL13, HAI2-PYL13, or HAI3-PYL13, which is consistent with PYL13 inhibition of these PP2Cs in an ABA-independent manner in vivo (FIG. 4A). To exclude interference by endogenous PP2Cs in wild type protoplasts and to assess the ABA-independent selective inhibition of PP2Cs by PYL13, PYL13 was co-expressed with PP2CA, HAI1, HAI2, and HAI3 in abi1/hab1/abi2 triple mutant protoplasts, as shown in FIG. 4C. After transfection, protoplasts were incubated for 4.5 h under light in the absence of ABA. Error bars indicate s.e.m. (n=3).
Expression of RD29B-LUC in the absence of ABA was increased in the transfections of PYL9-K63Q/L89F or PYL11-K39Q/L66F together with SnRK2.6 and ABF2 to a considerable level. The ABA-independent RD29B-LUC expression is about 70% of that in the presence of 5 μM ABA in the transfection of PYL11-K39Q/L66F, while about 30˜60% in the transfection of PYL9-K63Q/L89F (FIG. 4). […] RD29B-LUC was used as the ABA-responsive reporter. ZmUBQ-GUS was used as the internal control. After transfection, protoplasts were incubated for 4.5 h under light in the absence of ABA (open bars) or in the presence of 5 μM ABA (closed bars). Error bars indicate s.e.m. (n=4).
Assays for transient expression in protoplasts were performed as described (Fujii et al., 2009). Leaf strips (0.5 mm) were cut from the middle part of second leaves using a razor blade (VWR SCIENTIFIC) and submerged in 15 mL of enzyme solution containing 20 mM MES, pH 5.7, 1.5% (w/v) cellulase R10 (YAKULT PHARMACEUTICAL INDUSTRY), 0.4% (w/v) macerozyme R10 (YAKULT PHARMACEUTICAL INDUSTRY), 0.4 M mannitol, 20 mM KCl, 10 mM CaCl2, 1 mM 2-mercaptoethanol, and 0.1% BSA. The leaves were vacuum infiltrated for 30 min and then incubated without shaking for 3 h in the dark at room temperature. The enzyme/protoplast solution was diluted with 15 mL of W5 solution (2 mM MES, pH 5.7, 154 mM NaCl, 125 mM CaCl2, and 5 mM KCl) and filtered with a 75-μm nylon mesh. Protoplasts were centrifuged at 100 g for 2 min in a 30-mL round-bottomed tube (SARSTEDT), resuspended in W5 solution, and rested for 30 min at room temperature.
Before transfection, protoplasts were changed into MMg solution (4 mM MES, pH 5.7, 0.4 M mannitol, and 15 mM MgCl2) to a final concentration of 2×10^5 cells per microliter. Protoplasts (100 μl) were gently and thoroughly mixed with the plasmid DNA mixture (less than 10 μl) and 110 μl of PEG solution (40% w/v PEG-4000, 0.2 M mannitol, and 100 mM CaCl2), incubated for 5 min, washed with 440 μl of W5 solution, and resuspended in 50 μl of WI solution (4 mM MES, pH 5.7, 0.5 M mannitol, and 20 mM KCl). After transfection, protoplasts were incubated in WI solution without ABA or with 5 μM ABA under light. The protoplasts were harvested after 4.5 h, frozen in liquid N2, and stored at −80° C.
The frozen protoplasts were resuspended in 50 μl of protoplast lysis buffer containing 2.5 mM Tris-phosphate, pH 7.8, 1 mM DTT, 2 mM DACTAA, 10% (v/v) glycerol, and 1% (v/v) Triton X-100. Protoplast lysates (20 μl) were mixed with 100 μl of LUC mix (PROMEGA), and LUC luminescence was measured with a plate reader (Wallac VICTOR2 plate reader).
Protoplast lysates (2 μl) were mixed with 10 μl of 4-methylumbelliferyl β-D-glucuronide (MUG) substrate mix (10 mM Tris-HCl, pH 8, 1 mM MUG [GOLD BIOTECHNOLOGY], and 2 mM MgCl2). After the mixture was kept for 30 min at 37° C., 100 μl of 0.2 M Na2CO3 was added, and GUS activity was measured using the plate reader with the excitation filter at 355 nm and the emission filter at 460 nm.
All the plasmids used in this assay were purified with the QIAGEN Plasmid Maxi Kit or the QIAGEN Plasmid Midi Kit. The quality of plasmid DNA is important for high transfection efficiency. RD29B::LUC (7 μg of plasmid per transfection) was used as the ABA-responsive reporter. ZmUBQ::GUS (2 μg of plasmid per transfection) was used as the internal control. […]

From patent US9518268B2, “Drought tolerant transgenic plants and method of making same” (PURDUE RESEARCH FOUNDATION, priority 2013, dated 2016) come the findings set out here.

In the case of “PYL2: Arabidopsis thaliana PYL family ABA receptor protein PYL2, AT2G26040”, the “expression of RD29B-LUC in the absence of ABA” value (with PP2CA only, SnRK2.6 and ABF2 (control transfection)) is reported as “an increase was not observed”.

B1: PYL13: Arabidopsis thaliana PYR/PYL/RCAR family protein PYL13, SEQ ID NO: 1 (protein, listed as Arabidopsis thaliana)
chain: MESSKQKRCRSSVVETIEAPLPLVWSILRSFDKPQAYQRFVKSCTMRSGGGGGKGGEGKGSVRDVTLVSGFPADFSTERLEELDDESHVMVVSIIGGNHRLVNYKSKTKVVASPEDMAKKTVVVESYVVDVPEGTSEEDTIFFVDNIIRYNLTSLAKLTKKMMK
On to B1, for which the “expression of RD29B-LUC in the absence of ABA” value runs as follows: (with HAI1, SnRK2.6 and ABF2) “an increase was not observed”; (with PP2CA, HAI2, or HAI3, SnRK2.6 and ABF2) “increased”.
